# Test results from the supplement of paper PMC5998384.
# Assays:
# [1] = system: HeLa Kyoto; test: solubility in G1/S (NP-40 vs SDS abundance) (log2 ratio); higher = more soluble; details: cell cycle stage: G1/S
# [2] = system: HeLa Kyoto; test: melting temperature (median over replicates), in situ; higher = more thermally stable
# [3] = system: HeLa Kyoto; test: solubility change mitosis vs G1/S (difference of NP-40 vs SDS log2 ratios) (log2 ratio difference); higher = more soluble in mitosis
# [4] = system: HeLa Kyoto; test: thermal stability score vs G1/S (z-score of summed log2 fold changes over temperatures); higher = more thermally stable than in G1/S
# [5] = cell cycle stage: early G1 (4.5 h after nocodazole release)
# 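Wherever melting temperature (median over replicates), in situ is given: HeLa Kyoto cells synchronized by double thymidine or nocodazole block, proteins quantified by TMT10plex mass spectrometry, three independent biological replicates.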
# 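Wherever solubility change mitosis vs G1/S (difference of NP-40 vs SDS log2 ratios) is given: synchronized HeLa Kyoto cells (double thymidine block for G1/S, nocodazole release for mitosis), protein amounts in NP-40 versus SDS lysates quantified by mass spectrometry, three biological replicates.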
# 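Wherever solubility in G1/S (NP-40 vs SDS abundance) is given: HeLa Kyoto cells arrested at G1/S by double thymidine block, proteins quantified by TMT10plex mass spectrometry in mild NP-40 versus SDS extracts, three biological replicates.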
# 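Wherever thermal stability score vs G1/S (z-score of summed log2 fold changes over temperatures) is given: synchronized HeLa Kyoto cells, proteins quantified by TMT10plex mass spectrometry, three biological replicates, mitosis taken 0.5 h after nocodazole release, G1/S directly after double thymidine block.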
Sequence,solubility in G1/S (log2) [1],melting temperature ([2]; cell cycle stage: G1/S),melting temperature ([2]; cell cycle stage: mitosis),solubility change mitosis (log2) [3],"thermal stability score [4, 5]",thermal stability score ([4]; cell cycle stage: mitosis)
MVVFGYEAGTKPRDSGVVPVGTEEAPKVFKMAASMHGQPSPSLEDAKLRRPMVIEIIEKNFDYLRKEMTQNIYQMATFGTTAGFSGIFSNFLFRRCFKVKHDALKTYASLATLPFLSTVVTDKLFVIDALYSDNISKENCVFRSSLIGIVCGVFYPSSLAFTKNGRLATKYHTVPLPPKGRVLIHWMTLCQTQMKLMAIPLVFQIMFGILNGLYHYAVFEETLEKTIHEE [TMEM126B],-0.0998,55.9 °C,53.5 °C,0.00498,0.469,-1.3
MVWKRLGALVMFPLQMIYLVVKAAVGLVLPAKLRDLSRENVLITGGGRGIGRQLAREFAERGARKIVLWGRTEKCLKETTEEIRQMGTECHYFICDVGNREEVYQTAKAVREKVGDITILVNNAAVVHGKSLMDSDDDALLKSQHINTLGQFWTTKAFLPRMLELQNGHIVCLNSVLALSAIPGAIDYCTSKASAFAFMESLTLGLLDCPGVSATTVLPFHTSTEMFQGMRVRFPNLFPPLKPETVARRTVEAVQLNQALLLLPWTMHALVILKSILPQAALEEIHKFSGTYTCMNTFKGRT [DHRS3],-0.137,54 °C,53.1 °C,-0.135,0.157,-0.582
MWGACKVKVHDSLATISITLRRYLRLGATMAKSKFEYVRDFEADDTCLAHCWVVVRLDGRNFHRFAEKHNFAKPNDSRALQLMTKCAQTVMEELEDIVIAYGQSDEYSFVFKRKTNWFKRRASKFMTHVASQFASSYVFYWRDYFEDQPLLYPPGFDGRVVVYPSNQTLKDYLSWRQADCHINNLYNTVFWALIQQSGLTPVQAQGRLQGTLAADKNEILFSEFNINYNNELPMYRKGTVLIWQKVDEVMTKEIKLPTEMEGKKMAVTRTRTKPVPLHCDIIGDAFWKEHPEILDEDS [THG1L],-0.0679,53.3 °C,53.5 °C,-0.0698,0.242,-0.354
MWKASAGHAVSIAQDDAGADDWETDPDFVNDVSEKEQRWGAKTVQGSGHQEHINIHKLRENVFQEHQTLKEKELETGPKASHGYGGKFGVEQDRMDKSAVGHEYQSKLSKHCSQVDSVRGFGGKFGVQMDRVDQSAVGFEYQGKTEKHASQKDYSSGFGGKYGVQADRVDKSAVGFDYQGKTEKHESQRDYSKGFGGKYGIDKDKVDKSAVGFEYQGKTEKHESQKDYVKGFGGKFGVQTDRQDKCALGWDHQEKLQLHESQKDYKTGFGGKFGVQSERQDSAAVGFDYKEKLAKHESQQDYSKGFGGKYGVQKDRMDKNASTFEDVTQVSSAYQKTVPVEAVTSKTSNIRANFENLAKEKEQEDRRKAEAERAQRMAKERQEQEEARRKLEEQARAKTQTPPVSPAPQPTEERLPSSPVYEDAASFKAELSYRGPVSGTEPEPVYSMEAADYREASSQQGLAYATEAVYESAEAPGHYPAEDSTYDEYENDLGITAVALYDYQAAGDDEISFDPDDIITNIEMIDDGWWRGVCKGRYGLFPANYVELRQ [CTTN],-0.21,60.6 °C,57.6 °C,-0.0191,-3.16,-3.35
MWLDRRGWLRVLGHWRYDLRRPSFTRTWSGDKGPMAETVSTQVGTEGGLRASHQQNGDAGGDAKVELSPGPPKPAGREVEPAPVGGEHPSAAAPGPGKHKKRRGATRERVVPPPKKRRTGVSFGDEHFAETSYYFEGGLRKVRPYYFDFRTYCKGRWVGHSLLHVFSTEFRAQPLAYYEAAVRAGRLQLNEKPVQDLNIVLKDNDFLRNTVHRHEPPVTAEPIRLLAENEDVVVVDKPSSIPVHPCGRFRHNTVIFILGKEHQLKELHPLHRLDRLTSGVLMFAKTAAVSERIHEQVRDRQLEKEYVCRVEGEFPTEEVTCKEPILVVSYKVGVCRVDPRGKPCETVFQRLSYNGQSSVVRCRPLTGRTHQIRVHLQFLGHPILNDPIYNSVAWGPSRGRGGYIPKTNEELLRDLVAEHQAKQSLDVLDLCEGDLSPGLTDSTAPSSELGKDDLEELAAAAQKMEEVAEAAPQELDTIALASEKAVETDVMNQETDPLCAECRLVRQDPLPQDLVMFLHALRYKGPGFEYFSPMPAWAQDDWQKD [RPUSD2],-0.0296,54.1 °C,54.1 °C,0.0172,-1.46,-2.6
MWLPLVLLLAVLLLAVLCKVYLGLFSGSSPNPFSEDVKRPPAPLVTDKEARKKVLKQAFSANQVPEKLDVVVIGSGFGGLAAAAILAKAGKRVLVLEQHTKAGGCCHTFGKNGLEFDTGIHYIGRMEEGSIGRFILDQITEGQLDWAPLSSPFDIMVLEGPNGRKEYPMYSGEKAYIQGLKEKFPQEEAIIDKYIKLVKVVSSGAPHAILLKFLPLPVVQLLDRCGLLTRFSPFLQASTQSLAEVLQQLGASSELQAVLSYIFPTYGVTPNHSAFSMHALLVNHYMKGGFYPRGGSSEIAFHTIPVIQRAGGAVLTKATVQSVLLDSAGKACGVSVKKGHELVNIYCPIVVSNAGLFNTYEHLLPGNARCLPGVKQQLGTVRPGLGMTSVFICLRGTKEDLHLPSTNYYVYYDTDMDQAMERYVSMPREEAAEHIPLLFFAFPSAKDPTWEDRFPGRSTMIMLIPTAYEWFEEWQAELKGKRGSDYETFKNSFVEASMSVVLKLFPQLEGKVESVTAGSPLTNQFYLAAPRGACYGADHDLGRLHPCVMASLRAQSPIPNLYLTGQDIFTCGLVGALQGALLCSSAILKRNLYSDLKNLDSRIRAQKKKN [RETSAT],0.0503,52.1 °C,52.2 °C,-0.0973,2.89,3.75
MWLWEDQGGLLGPFSFLLLVLLLVTRSPVNACLLTGSLFVLLRVFSFEPVPSCRALQVLKPRDRISAIAHRGGSHDAPENTLAAIRQAAKNGATGVELDIEFTSDGIPVLMHDNTVDRTTDGTGRLCDLTFEQIRKLNPAANHRLRNDFPDEKIPTLREAVAECLNHNLTIFFDVKGHAHKATEALKKMYMEFPQLYNNSVVCSFLPEVIYKMRQTDRDVITALTHRPWSLSHTGDGKPRYDTFWKHFIFVMMDILLDWSMHNILWYLCGISAFLMQKDFVSPAYLKKWSAKGIQVVGWTVNTFDEKSYYESHLGSSYITDSMVEDCEPHF [GDE1],0.138,51.5 °C,55.9 °C,-0.1,0.685,-1.42
MWPGNAWRAALFWVPRGRRAQSALAQLRGILEGELEGIRGAGTWKSERVITSRQGPHIRVDGVSGGILNFCANNYLGLSSHPEVIQAGLQALEEFGAGLSSVRFICGTQSIHKNLEAKIARFHQREDAILYPSCYDANAGLFEALLTPEDAVLSDELNHASIIDGIRLCKAHKYRYRHLDMADLEAKLQEAQKHRLRLVATDGAFSMDGDIAPLQEICCLASRYGALVFMDECHATGFLGPTGRGTDELLGVMDQVTIINSTLGKALGGASGGYTTGPGPLVSLLRQRARPYLFSNSLPPAVVGCASKALDLLMGSNTIVQSMAAKTQRFRSKMEAAGFTISGASHPICPVMLGDARLASRMADDMLKRGIFVIGFSYPVVPKGKARIRVQISAVHSEEDIDRCVEAFVEVGRLHGALP [GCAT],0.194,53.3 °C,53.3 °C,-0.0435,-0.218,-1.56
MWPQPRLPPRPAMSEETRQSKLAAAKKKLREYQQRNSPGVPTGAKKKKKIKNGSNPETTTSGGCHSPEDTPKDNAATLQPSDDTVLPGGVPSPGASLTSMAASQNHDADNVPNLMDETKTFSSTESLRQLSQQLNGLVCESATCVNGEGPASSANLKDLESRYQQLAVALDSSYVTNKQLNITIEKLKQQNQEITDQLEEEKKECHQKQGALREQLQVHIQTIGILVSEKAELQTALAHTQHAARQKEGESEDLASRLQYSRRRVGELERALSAVSTQQKKADRYNKELTKERDALRLELYKNTQSNEDLKQEKSELEEKLRVLVTEKAGMQLNLEELQKKLEMTELLLQQFSSRCEAPDANQQLQQAMEERAQLEAHLGQVMESVRQLQMERDKYAENLKGESAMWRQRMQQMSEQVHTLREEKECSMSRVQELETSLAELRNQMAEPPPPEPPAGPSEVEQQLQAEAEHLRKELEGLAGQLQAQVQDNEGLSRLNREQEERLLELERAAELWGEQAEARRQILETMQNDRTTISRALSQNRELKEQLAELQSGFVKLTNENMEITSALQSEQHVKRELGKKLGELQEKLSELKETVELKSQEAQSLQQQRDQYLGHLQQYVAAYQQLTSEKEVLHNQLLLQTQLVDQLQQQEAQGKAVAEMARQELQETQERLEAATQQNQQLRAQLSLMAHPGEGDGLDREEEEDEEEEEEEAVAVPQPMPSIPEDLESREAMVAFFNSAVASAEEEQARLRGQLKEQRVRCRRLAHLLASAQKEPEAAAPAPGTGGDSVCGETHRALQGAMEKLQSRFMELMQEKADLKERVEELEHRCIQLSGETDTIGEYIALYQSQRAVLKERHREKEEYISRLAQDKEEMKVKLLELQELVLRLVGDRNEWHGRFLAAAQNPADEPTSGAPAPQELGAANQQGDLCEVSLAGSVEPAQGEAREGSPRDNPTAQQIMQLLREMQNPRERPGLGSNPCIPFFYRADENDEVKITVI [GOLGA2],0.522,48.9 °C,48.9 °C,0.0669,1.74,3.29
MWRCGGRQGLCVLRRLSGGHAHHRAWRWNSNRACERALQYKLGDKIHGFTVNQVTSVPELFLTAVKLTHDDTGARYLHLAREDTNNLFSVQFRTTPMDSTGVPHILEHTVLCGSQKYPCRDPFFKMLNRSLSTFMNAFTASDYTLYPFSTQNPKDFQNLLSVYLDATFFPCLRELDFWQEGWRLEHENPSDPQTPLVFKGVVFNEMKGAFTDNERIFSQHLQNRLLPDHTYSVVSGGDPLCIPELTWEQLKQFHATHYHPSNARFFTYGNFPLEQHLKQIHEEALSKFQKIEPSTVVPAQTPWDKPREFQITCGPDSFATDPSKQTTISVSFLLPDITDTFEAFTLSLLSSLLTSGPNSPFYKALIESGLGTDFSPDVGYNGYTREAYFSVGLQGIAEKDIETVRSLIDRTIDEVVEKGFEDDRIEALLHKIEIQMKHQSTSFGLMLTSYIASCWNHDGDPVELLKLGNQLAKFRQCLQENPKFLQEKVKQYFKNNQHKLTLSMRPDDKYHEKQAQVEATKLKQKVEALSPGDRQQIYEKGLELRSQQSKPQDASCLPALKVSDIEPTIPVTELDVVLTAGDIPVQYCAQPTNGMVYFRAFSSLNTLPEELRPYVPLFCSVLTKLGCGLLDYREQAQQIELKTGGMSASPHVLPDDSHMDTYEQGVLFSSLCLDRNLPDMMQLWSEIFNNPCFEEEEHFKVLVKMTAQELANGIPDSGHLYASIRAGRTLTPAGDLQETFSGMDQVRLMKRIAEMTDIKPILRKLPRIKKHLLNGDNMRCSVNATPQQMPQTEKAVEDFLRSIGRSKKERRPVRPHTVEKPVPSSSGGDAHVPHGSQVIRKLVMEPTFKPWQMKTHFLMPFPVNYVGECIRTVPYTDPDHASLKILARLMTAKFLHTEIREKGGAYGGGAKLSHNGIFTLYSYRDPNTIETLQSFGKAVDWAKSGKFTQQDIDEAKLSVFSTVDAPVAPSDKGMDHFLYGLSDEMKQAHREQLFAVSHDKLLAVSDRYLGTGKSTHGLAILGPENPKIAKDPSWIIQ [PITRM1],0.143,51.4 °C,50.9 °C,-0.084,0.343,-0.944
